As usually defined, the IC50 is the concentration at which inhibition is half-maximal. Usually Kd stands for a measure of binding affinity in units of concentration. A word on the koff: it is a measure of how fast the partners let go of each other. One may read the kon as a measure of how fast the partners come together.

Changes are numbered by the printed parent chain.

The labels stand for the following.
B1: anti-IGF1R antibody 12A4 (antibody, V domains shown)
VH: EVQLVQSGGGEIRPGGSLRLSCAASGFTFADYGMSWVRQAPGEGLEWVSEIDWTGGSKLYADSVKGRFTISRDNAKNSLFLQMNSLRAEDTALYYCVRDRGAVSPKYYYYGMDVWGQGTTVTVSS
VL: EIVLTQSPSSLSASVGDRVTITCRASQGIRNDLGWYQQKPGKAPKRLIYAASRLQSGVPSRFSGSGSGTDFTLTISSLQPEDFATYYCLQHNSYPYTFGQGTKLEIK
B2: anti-IGF1R antibody 10G1 (antibody, human IgG1, V domains shown)
VH: QVQLVESGGGLVKPGGSLRLSCAASEFTFSDYYMSWIRQSPGKGLEWVSYISNSGSFTNYADSVKGRFTISRDNAKNSLYLQMNSLRAEDSAIYYCVRDQAPVTSKYYYYGMDVWGQGTTVTVSS
VL: B1 VL with L33F, G34A, S56R, D70E
B3: anti-IGF1R antibody 12D1 (antibody, human IgG1, V domains shown)
VH: QVQLVESGGGVVRPGGSLRLSCAASGFTFDDYGMSWVRQVPGKGLEWVSGINWNGGSTDYADSVKGRFTISREKAKNSLYLQMNSLRAEDTALYYCVRDRGAVTRRYYYYGMDVWGQGTTVTVSS
VL: B1 VL with E1D, V3Q, L4M, G28D, Q38L, D70E
B4: anti-IGF1R antibody 10D1 (antibody, human IgG1, V domains shown)
VH: B3 VH with V5Q, E6Q, D30A, E73D, K74N, N77H, L93F, V97A, T104S, Q117L
VL: B1 VL with E1A, V3Q, G28D, Q38L, R61G, D70E

T1 sequence (P08069 other isoform, or with tags, fused parts or gaps limits assumed): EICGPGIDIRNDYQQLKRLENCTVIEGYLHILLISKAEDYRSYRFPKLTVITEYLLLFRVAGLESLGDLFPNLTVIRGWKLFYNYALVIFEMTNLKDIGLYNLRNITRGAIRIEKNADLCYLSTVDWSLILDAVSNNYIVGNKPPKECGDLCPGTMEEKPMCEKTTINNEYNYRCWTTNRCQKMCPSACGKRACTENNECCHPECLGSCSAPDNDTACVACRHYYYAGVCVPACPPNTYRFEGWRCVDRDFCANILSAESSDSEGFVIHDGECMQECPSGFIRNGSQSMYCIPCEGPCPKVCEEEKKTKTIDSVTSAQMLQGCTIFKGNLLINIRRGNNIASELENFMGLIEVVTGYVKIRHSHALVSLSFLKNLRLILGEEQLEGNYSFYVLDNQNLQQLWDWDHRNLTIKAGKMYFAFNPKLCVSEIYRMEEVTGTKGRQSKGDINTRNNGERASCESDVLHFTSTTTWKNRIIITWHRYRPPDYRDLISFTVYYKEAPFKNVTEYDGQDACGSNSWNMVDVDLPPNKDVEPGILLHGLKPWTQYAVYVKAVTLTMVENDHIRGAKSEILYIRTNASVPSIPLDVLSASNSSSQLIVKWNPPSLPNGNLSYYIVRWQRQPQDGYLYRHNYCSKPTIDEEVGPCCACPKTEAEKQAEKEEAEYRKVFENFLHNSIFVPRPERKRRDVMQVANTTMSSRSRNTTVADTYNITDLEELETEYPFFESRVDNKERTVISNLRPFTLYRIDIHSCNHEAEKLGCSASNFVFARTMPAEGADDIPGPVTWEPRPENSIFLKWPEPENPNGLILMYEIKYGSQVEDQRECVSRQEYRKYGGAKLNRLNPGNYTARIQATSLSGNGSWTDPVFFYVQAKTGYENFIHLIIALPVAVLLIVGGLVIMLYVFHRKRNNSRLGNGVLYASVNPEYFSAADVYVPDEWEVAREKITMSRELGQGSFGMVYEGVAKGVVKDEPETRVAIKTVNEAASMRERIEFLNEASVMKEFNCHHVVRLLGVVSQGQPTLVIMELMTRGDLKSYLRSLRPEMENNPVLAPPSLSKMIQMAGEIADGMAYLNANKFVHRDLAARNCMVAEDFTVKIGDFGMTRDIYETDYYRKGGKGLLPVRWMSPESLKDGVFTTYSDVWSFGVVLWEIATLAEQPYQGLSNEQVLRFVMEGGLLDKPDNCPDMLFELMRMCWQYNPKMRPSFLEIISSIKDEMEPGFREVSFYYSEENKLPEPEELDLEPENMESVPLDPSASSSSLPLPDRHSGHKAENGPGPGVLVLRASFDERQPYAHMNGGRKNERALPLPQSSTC

The first assay addresses T1, cynomolgus monkey IGF1R on cells (cynomolgus monkey, UniProt P08069 31-1367 (human entry)).
T1 construct: Expressed on CHO-S cells; also called fasIGF1R; CHO-S-fasIGF1R cells
Nature of the assay: flow cytometry on CHO-S-fasIGF1R cells, antibody 20 µg/mL. As for the experimental part:
(§1) INSR (insulin receptor) and IGF1R are both members of the superfamily of receptor tyrosine kinases (RTKs). The binding activity of anti-IGF1R antibodies to human IGF1R, human INSR and monkey IGF1R was verified by flow cytometry. Briefly, CHO-S-hIGF1R cells (expressing human IGF1R (SEQ ID NO: 45), CHO-S-fasIGF1R cells (expressing cynomolgus monkey IGF1R (SEQ ID NO: 46) and CHO-S-hINSR (expressing SEQ ID NO: 47) were plated in a 96-well plate at a density of 2×10⁵ cells/well respectively. Purified anti-IGF1R antibody with a concentration of 20 μg/mL was added to each well and was incubated at 4° C. for 30 minutes. Then, after one wash with PBS, the cells were incubated with the secondary antibody Alexa Fluor® 647 anti-human IgG Fcγ (Jackson ImmunoResearch Laboratories, Inc., Cat #: 109-606-170) at 4° C. for 15 minutes before flow cytometry analysis. Human IgG1 was used as ISO control.
For the molecule B1, the “Percentage of positive cells” value came to 54.4%.

Take B2: the “Percentage of positive cells” value turned out to be 73.9%.

Consider B3, for which the “Percentage of positive cells” value came out at 60.7%.

Consider B4, for which the “Percentage of positive cells” value worked out at 64.8%.

The target of the next assay is T2, human IGF1R (insulin-like growth factor 1 receptor) on cells (human, UniProt P08069 31-1367).
T2 construct: also called hIGF1R; CHO-S-hIGF1R cells
T2 sequence (P08069 31-1367 limits assumed): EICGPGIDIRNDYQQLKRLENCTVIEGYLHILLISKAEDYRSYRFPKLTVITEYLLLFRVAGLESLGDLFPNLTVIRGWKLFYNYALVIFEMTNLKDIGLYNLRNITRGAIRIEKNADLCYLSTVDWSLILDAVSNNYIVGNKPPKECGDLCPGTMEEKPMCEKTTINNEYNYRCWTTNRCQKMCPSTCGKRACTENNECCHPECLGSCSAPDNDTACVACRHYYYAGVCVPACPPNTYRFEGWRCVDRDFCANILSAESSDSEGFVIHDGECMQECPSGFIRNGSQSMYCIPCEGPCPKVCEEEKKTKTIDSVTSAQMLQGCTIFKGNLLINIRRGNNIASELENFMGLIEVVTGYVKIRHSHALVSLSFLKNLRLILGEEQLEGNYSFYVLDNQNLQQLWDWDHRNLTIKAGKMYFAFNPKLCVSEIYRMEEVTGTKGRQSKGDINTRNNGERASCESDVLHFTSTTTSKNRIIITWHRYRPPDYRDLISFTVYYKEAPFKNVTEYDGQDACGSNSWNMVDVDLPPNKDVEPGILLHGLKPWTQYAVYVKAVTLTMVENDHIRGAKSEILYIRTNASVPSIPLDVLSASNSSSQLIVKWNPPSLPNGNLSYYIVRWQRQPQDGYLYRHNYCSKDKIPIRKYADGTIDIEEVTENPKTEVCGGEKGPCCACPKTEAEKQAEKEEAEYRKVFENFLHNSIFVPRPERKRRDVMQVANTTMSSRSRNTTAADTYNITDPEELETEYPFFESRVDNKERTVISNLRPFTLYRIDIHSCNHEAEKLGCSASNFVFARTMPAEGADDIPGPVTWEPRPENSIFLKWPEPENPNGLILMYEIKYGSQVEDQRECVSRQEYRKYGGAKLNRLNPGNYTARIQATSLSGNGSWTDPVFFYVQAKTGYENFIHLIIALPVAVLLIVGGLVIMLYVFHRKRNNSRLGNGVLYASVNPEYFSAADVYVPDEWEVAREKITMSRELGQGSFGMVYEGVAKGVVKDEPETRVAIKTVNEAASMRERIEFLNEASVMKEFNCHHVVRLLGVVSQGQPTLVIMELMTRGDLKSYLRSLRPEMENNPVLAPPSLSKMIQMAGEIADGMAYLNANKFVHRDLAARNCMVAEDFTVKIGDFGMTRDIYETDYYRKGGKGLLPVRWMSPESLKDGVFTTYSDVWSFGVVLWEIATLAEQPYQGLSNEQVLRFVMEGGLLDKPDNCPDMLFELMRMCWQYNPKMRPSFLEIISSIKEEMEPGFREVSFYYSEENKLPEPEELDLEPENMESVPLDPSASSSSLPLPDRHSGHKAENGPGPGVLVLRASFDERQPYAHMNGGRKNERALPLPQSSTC
The assay can be described thus: flow cytometry on CHO-S-hIGF1R cells, antibody 20 µg/mL. How it is done:
as §1
On the technique in general: A flow cytometer gives signals particle by particle.
Take B1: the “Percentage of positive cells” value stood at 50.3%.

For the molecule B2, the “Percentage of positive cells” value was 46.4%.

For B3, the “Percentage of positive cells” value was 39.3%.

Turning to B4, the “Percentage of positive cells” value is 36.5%.

The target in the next assay is T3, His-tagged human IGF1R protein (ACRO Biosystems Inc., Cat #: IGR-H5229) (human, UniProt P08069 31-932).
T3 construct: Bought protein; also called hIGF1R-His; not shown: His tag
T3 sequence (P08069 31-932): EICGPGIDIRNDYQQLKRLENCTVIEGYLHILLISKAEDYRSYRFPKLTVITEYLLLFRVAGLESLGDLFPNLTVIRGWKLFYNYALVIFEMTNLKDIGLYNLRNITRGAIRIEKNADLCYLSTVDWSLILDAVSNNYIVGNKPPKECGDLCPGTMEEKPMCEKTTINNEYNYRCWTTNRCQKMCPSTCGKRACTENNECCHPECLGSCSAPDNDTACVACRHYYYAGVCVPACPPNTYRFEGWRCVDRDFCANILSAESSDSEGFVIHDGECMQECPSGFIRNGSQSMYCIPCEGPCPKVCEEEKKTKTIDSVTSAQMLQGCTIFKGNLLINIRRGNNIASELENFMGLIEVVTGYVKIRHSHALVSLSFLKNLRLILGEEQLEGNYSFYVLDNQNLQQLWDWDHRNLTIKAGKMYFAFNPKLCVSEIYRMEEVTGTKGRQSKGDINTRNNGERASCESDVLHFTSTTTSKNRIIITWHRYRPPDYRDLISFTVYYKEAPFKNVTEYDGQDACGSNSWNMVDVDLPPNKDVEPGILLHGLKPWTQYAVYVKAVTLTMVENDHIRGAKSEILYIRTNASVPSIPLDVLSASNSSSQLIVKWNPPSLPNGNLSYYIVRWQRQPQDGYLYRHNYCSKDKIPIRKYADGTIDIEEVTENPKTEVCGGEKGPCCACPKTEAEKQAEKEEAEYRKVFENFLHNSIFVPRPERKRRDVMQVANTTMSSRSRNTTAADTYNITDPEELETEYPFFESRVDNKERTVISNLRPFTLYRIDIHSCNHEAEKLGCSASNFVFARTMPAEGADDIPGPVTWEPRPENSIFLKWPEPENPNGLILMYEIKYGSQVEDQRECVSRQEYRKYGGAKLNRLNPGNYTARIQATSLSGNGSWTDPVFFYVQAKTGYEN
Nature of the assay: SPR (Biacore 8K) on captured hIGF1R-His, binder injected second (Analyte 2); competitor injected first (Analyte 1): 10G1. As for the experimental part:
(§2) Epitope binding assays were performed using Biacore™ 8K biosensor to determine whether two anti-IGF1R antibodies target the same or overlapping epitopes. 1×HBS-EP+ buffer (10 mM 4-(2-hydroxyethyl)-1-piperazineethanesulfonic acid (HEPES), 150 mM NaCl, 3 mM ethylenediaminetetraacetic acid (EDTA) and 0.05% P20, pH7.4) diluted from HBS-EP+buffer (10×) was used as the running buffer throughout the experiment. About 50 RU of hIGF1R-His was captured at a flow rate of 10 μL/min, and 200 nM of the tested antibody (Analyte 1) was injected at a flow rate of 30 uL/min to bind the ligand. Another comparison antibody (Analyte 2) was injected under the same conditions to determine whether the binding of different antibodies interfered with each other. The binding time was 180 s for each antibody.
(§3) The binding value of each antibody was obtained using Biacore Insight Evaluation (Version: 2.0.15.12933). To quantify the interference of one antibody binding to another, a binding ratio was calculated to compare each pair of antibodies. The binding ratio is defined as the binding value of the second antibody (Analyte 2) divided by the binding value of the first antibody (Analyte 1). The threshold to determine the block or non-block is 0.3.
For B1, the “binding ratio (Analyte 2 / Analyte 1)” value was -0.01.

As for B2, the “binding ratio (Analyte 2 / Analyte 1)” value was -0.01.

For the molecule B3, the “binding ratio (Analyte 2 / Analyte 1)” value came to 0.

In the case of B4, the “binding ratio (Analyte 2 / Analyte 1)” value was 0.02.

The target of a further assay is T2, human IGF1R (insulin-like growth factor …). Nature of the assay: cell-based or functional assay.
Take B1: the “EC50 of internalization (MFI of pHAb-labelled secondary Fab, NCI-H838 cells)” value (shortened to “EC50 of internalization”) came out at 0.92 nM.

As to B2, the “EC50 of internalization” value was determined as 1.12 nM.

Consider B3, for which the “EC50 of internalization” value amounted to 0.66 nM.

For the molecule B4, the “EC50 of internalization” value is 0.51 nM.

In a further assay the target is T3, His-tagged human IGF1R protein (ACRO …). The assay can be described thus: blocking ELISA on coated hIGF1R-His; blocked ligand: biotinylated human IGF-II. As for the experimental part: Blocking assays were performed to determine whether the anti-IGF1R antibodies can block the binding between IGF1R and its ligand IGF-1 and IGF-2. Specifically, the microwell plates were coated with 100 μl/well of 5 μg/mL hIGF1R-His in pH 9.6 carbonate buffer, overnight at 4° C. Plates were blocked with at 200 μl/well of 1% bovine serum albumin and incubated at 37° C. for 2 hours. Serially diluted anti-IGF1R antibodies (0.005-10 μg/mL in 3-fold serial dilution plus buffer blank) were added to the plates at 100 μL/well. After a 1.5-hour incubation, Biotinylated Human IGF-I Protein (Acro Biosystems, Cat #: IG1-H82F7) or Biotinylated Human IGF-I Protein was replaced with Biotinylated Human IGF-II Protein (Acro Biosystems, Cat #: IG2-H82Q6) were added to the plates at 100 μL/well. After a 1.5-hour incubation at 37° C., HRP Streptavidin (Biolegend, Cat #: 405210) at 1:3000 dilution was added to the plates at 100 μL/well and incubated for 1 hour. Plates were washed 5 times and 100 μL of TMB was added to each well, and incubated for 10 minutes. 100 uL of 1M Phosphoric Acid was then added to each well and ELISA plates were read at 450/570 nm wavelength. A fitting curve was obtained using Log (antibody concentration (M)) as the X-axis and […] as the Y-axis.
(ELISA stands for enzyme-linked immunosorbent assay.)
In the case of B1, the IC50 amounted to 1.9 nM and the “Max inhibition (%) (10 µg/mL)” value is 81%.

Consider B2, for which inhibition was half-maximal at 5.2 nM (IC50) and the “Max inhibition (%) (10 µg/mL)” value was 73%.

Consider B3, for which the concentration for half-maximal inhibition (IC50) stood at 1.6 nM and the “Max inhibition (%) (10 µg/mL)” value came out at 88%.

Take B4: the IC50 turned out to be 1.7 nM and the “Max inhibition (%) (10 µg/mL)” value stood at 76%.

The target of another assay is His-tagged cynomolgus monkey IGF1R protein (ACRO Biosystems Inc., Cat #: IGR-C5225) (cynomolgus monkey). The assay can be described thus: SPR (Biacore 8K), antibody captured on Protein A chip, antigen as analyte, 1:1 model. Background: Surface plasmon resonance follows binding to a sensor surface in real time, without labels.
B1 registered an equilibrium dissociation constant (Kd) of 0.568 nM, a koff of 1.05e-05 s⁻¹ and an association rate constant (kon) of 18400 M⁻¹ s⁻¹.

For the molecule B2, the dissociation constant (Kd) was 8.57 nM, the koff stood at 0.000237 s⁻¹ and the kon was 27600 M⁻¹ s⁻¹.

B3 gave a dissociation constant (Kd) of 2.79 nM, a koff of 1.8e-05 s⁻¹ and a kon of 6450 M⁻¹ s⁻¹.

As to B4, the Kd was 2.1 nM, the off-rate (koff) worked out at 1.75e-05 s⁻¹ and the kon stood at 8360 M⁻¹ s⁻¹.

Another assay addresses T2, human IGF1R (insulin-like growth factor …). Nature of the assay: cell-based or functional assay. The source holds these as a separate data set.
B1: the “IC50 of inhibition of IGF-1-induced OPN secretion (U2OS-TSHR cells)” value (“IC50 of inhibition … (U2OS-TSHR cells)” for short) was 0.068 nM.

As for B2, the “IC50 of inhibition … (U2OS-TSHR cells)” value came out at 0.13 nM.

As for B3, the “IC50 of inhibition … (U2OS-TSHR cells)” value is 0.096 nM.

Regarding B4, the “IC50 of inhibition … (U2OS-TSHR cells)” value stood at 0.046 nM.

For the next assay, the target named is T3, His-tagged human IGF1R protein (ACRO …). The assay can be described thus: SPR (Biacore 8K) on captured hIGF1R-His, binder injected second (Analyte 2); competitor injected first (Analyte 1): 12A4. How it is done:
as §2, §3
Take B1: the “binding ratio (Analyte 2 / Analyte 1)” value was -0.01.

In the case of B2, the “binding ratio (Analyte 2 / Analyte 1)” value was -0.03.

Regarding B3, the “binding ratio (Analyte 2 / Analyte 1)” value turned out to be 0.

Turning to B4, the “binding ratio (Analyte 2 / Analyte 1)” value came out at 0.02.

For the next assay, the target named is T2, human IGF1R (insulin-like growth factor …). Nature of the assay: cell-based or functional assay. This is another data set of the same source.
Consider B1, for which the “IC50 of inhibition of IGF-1-induced proliferation (NCI-H838 cells)” value (shortened to “IC50 of inhibition … (NCI-H838 cells)”) was determined as 0.045 nM and the “Max inhibition (%) (10 µg/mL) of IGF-1-induced proliferation (NCI-H838 cells)” value (shortened to “Max inhibition (%) (10 µg/mL) … (NCI-H838 cells)”) turned out to be 105%.

As to B2, the “IC50 of inhibition … (NCI-H838 cells)” value amounted to 0.091 nM and the “Max inhibition (%) (10 µg/mL) … (NCI-H838 cells)” value turned out to be 88%.

As to B3, the “IC50 of inhibition … (NCI-H838 cells)” value is 0.064 nM and the “Max inhibition (%) (10 µg/mL) … (NCI-H838 cells)” value was 145%.

As for B4, the “IC50 of inhibition … (NCI-H838 cells)” value stood at 0.14 nM and the “Max inhibition (%) (10 µg/mL) … (NCI-H838 cells)” value worked out at 117%.

For the next assay the target is unchanged. The assay can be described thus: cell-based or functional assay. The source holds these as a separate data set.
In the case of B1, the “IC50 of inhibition of IGF1R phosphorylation (CHO-S-hIGF1R cells, IGF-1 added, phosphotyrosine IGF1R ELISA)” value is 0.9 nM.

Consider B2, for which the “IC50 of inhibition of IGF1R phosphorylation (CHO-S-hIGF1R cells, IGF-1 added, phosphotyrosine IGF1R ELISA)” value was 1.2 nM.

For the molecule B3, the “IC50 of inhibition of IGF1R phosphorylation (CHO-S-hIGF1R cells, IGF-1 added, phosphotyrosine IGF1R ELISA)” value was determined as 1.3 nM.

For B4, the “IC50 of inhibition of IGF1R phosphorylation (CHO-S-hIGF1R cells, IGF-1 added, phosphotyrosine IGF1R ELISA)” value came to 1.4 nM.

For the origin of these results see patent US20260258141A1 (BIOCYTOGEN PHARMACEUTICALS BEIJING, published 2026).
